# Biological target: T1, HLA-A*03:01 (human)
# T1 construct: MHC class I monomer first loaded with a UV-sensitive peptide that is cleaved by UV irradiation and exchanged for the test peptide; captured on streptavidin plates; also called peptide-receptive MHC molecules
# Assay: UV-ligand exchange, anti-b2m ELISA; peptide exchange yield grade (>10% +, >20% ++, >50% +++, >75% ++++)
# Description: Candidate peptides for T cell based therapies according to the present invention were further tested for their MHC binding capacity (affinity). The individual peptide-MHC complexes were produced by UV-ligand exchange, where a UV-sensitive peptide is cleaved upon UV-irradiation and exchanged with the peptide of interest as analyzed. Only peptide candidates that can effectively bind and stabilize the peptide-receptive MHC molecules prevent dissociation of the MHC complexes. To determine the yield of the exchange reaction, an ELISA was performed based on the detection of the light chain (β2m) of stabilized MHC complexes. The assay was performed as generally described in Rodenko et al. (Rodenko et al., 2006)
# 96 well MAXISorp plates (NUNC) were coated over night with 2 ug/ml streptavidin in PBS at room temperature, washed 4× and blocked forl h at 37° C. in 2% BSA containing blocking buffer. Refolded HLA-A*02:01/MLA-001 monomers served as standards, covering the range of 15-500 ng/ml. Peptide-MHC monomers of the UV-exchange reaction were diluted 100-fold in blocking buffer. Samples were incubated for 1 h at 37° C., washed four times, incubated with 2 ug/ml HRP conjugated anti-β2m for 1 h at 37° C., washed again and detected with TMB solution that is stopped with […]. Absorption was measured at 450 nm.
row,peptide exchange yield [%],Binder
1,> 75,AISSTVLGK
2,50 to 75,EGLFLLGCVK
3,> 75,KLYPTHACR
4,> 75,RTIDRSVFK
5,50 to 75,VSLGTPIMK
6,> 75,IVAFIPLSNK
7,> 75,KVYIPPIINK
8,20 to 50,SSLAELIAK
9,> 75,IVFPDVISK
10,> 75,KLETGVVKK
11,> 75,RVLPPLTRILK
12,> 75,KTGWFTLLY
13,50 to 75,KVLEPPLGAR
14,50 to 75,RVSSVKLISK
15,> 75,KTWAHCMSY
16,> 75,GISNPITTSK
17,> 75,KLFTSVFGVGLK
18,50 to 75,RVAEEILIK
19,> 75,VAFIPLSNK
20,50 to 75,AVIGALLAVGATK
21,50 to 75,KVLSILSRLK
22,> 75,ALERKFRQK
23,> 75,STLECILYK

row,peptide exchange yield [%],Binder
1,> 75,RSYVPLAH
2,> 75,AVAQKLLSH
3,20 to 50,KVFEEPEDFLK
4,20 to 50,SSLPRAFQK
5,> 75,ALAAKLEVK
6,> 75,RLAVSTRGK
7,50 to 75,QLGYQAAVLK
8,50 to 75,KLSLSHKK
9,> 75,AVCGGVLVH
10,> 75,RLYYSFKNITK
11,> 75,RSKWSNVFK
12,> 75,RLKMAQESVSK
13,50 to 75,SIINFKPLTY
14,> 75,RLPLRVVKH
15,50 to 75,IVYPSATDKTK
16,50 to 75,KVMPKQTWK
17,> 75,KTCQVSGLLY
18,> 75,QICLPAIYK
19,> 75,SLYNLGGAK
20,50 to 75,QVRDTLKIVFK
21,> 75,RLYEMILQR
22,> 75,TMWQIPQEFVK
23,20 to 50,ILDSSLLK

row,peptide exchange yield [%],Binder
1,> 75,RSNPYFQNK
2,> 75,KIFQGQINK
3,> 75,KILDRVLSRY
4,> 75,KVADFGLARLLK
5,> 75,AVYNYPEGAAY
6,50 to 75,RVYEGDGRNSLK
7,50 to 75,RLSPGPRAY
8,> 75,RIVDYLLEK
9,> 75,RVWLGKHYK
10,50 to 75,LLPTVLIKK
11,> 75,ALPRQAFHSK
12,50 to 75,KAFNQSSIFTK
13,50 to 75,KIWQNLRLK
14,> 75,RSYSHVVLK
15,> 75,SLYDGFLSY
16,> 75,RVYPRPPSK
17,> 75,SVLDKLLFH
18,> 75,SGSTLECILYK
19,50 to 75,RLFPGLYLGY
20,> 75,KLQAKVLQY
21,> 75,RVYPRPPSKTY

# — US20200000897A1 (published 2020)
